The values below come from patent US20250381284A1 (Eli Lilly, published 2025).

As a reminder, the Kd is the free concentration of one partner at which half of the binding sites on the other are occupied at equilibrium, for simple one-to-one binding. Lower therefore signals higher affinity. For orientation: koff means a measure of how fast the partners let go of each other. A higher koff goes with a short-lived complex. The term kon denotes the second-order rate constant of association. Low values mean slow association, high ones fast association.

The target of this assay is T1, human TfR ECD (human, UniProt P02786 89-760).
T1 construct: extracellular domain; also called Human Transferrin Receptor 1 extracellular domain
In words: SPR (Biacore 8K), human TfR ECD amine-coupled on CM3 chip, 25 C, 2-state model. How it is done:
Target human TfR ECDs were immobilized on a CM3 chip (Cytiva P/N BR100536) using standard NHS-EDC amine coupling. The TfR binding proteins were prepared at a final concentration of 1.8, 0.6, 0.2, 0.067, 0.022, 0.0074, 0.0025 μM respectively by dilution of stock solution into running buffer.
Binding analysis was performed in a single-cycle or multi-cycle kinetics manner. Each analysis cycle consisted of (1) injection of the lowest to highest concentration proteins over all flow channel at 50 μL/min for 200 seconds followed by return to buffer flow for 900 seconds to monitor dissociation phase; (2) regeneration of chip surfaces with injection of 3M magnesium chloride, for 30 seconds at […] over all cells; and (3) equilibration of chip surfaces with a 50 μL (30-sec) injection of HBS-EP+. Data were processed using standard double-referencing and fit to a 2-state binding model using Biacore 8K Evaluation software, to determine the association rate (kₒₙ, M⁻¹s⁻¹ units), dissociation rate (koff, s⁻¹ units), and Rₘₐₓ (RU units). The equilibrium dissociation constant (KD) is calculated from the relationship KD=koff/kₒₙ, and is in molar units.
Background: Surface plasmon resonance follows binding to a sensor surface in real time, without labels.

B1: TBP5 (Fab1-One Arm Heteromab 2, S124C) (antibody, human IgG4 S228P, kappa, F234A L235A)
heavy 1: EVQLVESGGGLVKPGGSLRLSCVASGFTFSSYSMNWVRQAPGKGLEWVSSISSSSSYIYYADSVKGRFTISRDNAKNSLYLQMNSLRAEDTAVYYCARRHGYSNSDAFDNWGQGTLVTVSSASTKGPCVFPLAPCSRSTSESTAALGCLVKDYFPEPVTVSWNSGALTSGVHTFPAVLQSSGLYSLSSVVTVPSSSLGTKTYTCNVDHKPSNTKVDKRVESKYGPPCPPCPAPEAAGGPSVFLFPPKPKDTLMISRTPEVTCVVVDVSQEDPEVQFNWYVDGVEVHNAKTKPREEQFNSTYRVVSVLTVLHQDWLNGKEYKCKVSNKGLPSSIEKTISKAKGQPREPQVSTLPPSQEEMTKNQVSLMCLVYGFYPSDIAVEWESNGQPENNYKTTPPVLDSDGSFFLYSVLTVDKSRWQEGNVFSCSVMHEALHNHYTQKSLSLSLG
light: DIQMTQSPSAMSASVGDRVTITCRASQGISHYLVWFQQKPGKVPKRLIYAASSLQSGVPSRFSGSGSGTEFTLTISSLQPEDFATYYCLQHNSYPWTFGQGTKVEIKRTVAAPSVFIFPPSDEQLKSGTASVVCLLNNFYPREAKVQWKVDNALQSGNSQESVTEQDSKDSTYSLSSTLTLSKADYEKHKVYACEVTHQGLSSPVTKSFNRGEC
heavy 2: ESKYGPPCPPCPAPEAAGGPSVFLFPPKPKDTLMISRTPEVTCVVVDVSQEDPEVQFNWYVDGVEVHNAKTKPREEQFNSTYRVVSVLTVLHQDWLNGKEYKCKVSNKGLPSSIEKTISKAKGQPREPQVYTLPPSQGDMTKNQVQLTCLVKGFYPSDIAVEWESNGQPENNYKTTPPVLDSDGSFFLASRLTVDKSRWQEGNVFSCSVMHEALHNHYTQKSLSLSLG
notes: One-arm heteromab, hIgG4 PAA, tested as the unconjugated protein; also called OAH2
As for B1, the Kd stood at 12.4 nM.

B2: TBP8 (Fab2-VHH) (Fab)
heavy: EVQLVESGGGLVKPGGSLRLSCVASGFTFSSYSMNWVRQAPGKGLEWVSSISSSSSYIYYADSVKGRFTISRDNAKNSLYLQMNSLRAEDTAVYYCARRHGYSNSDAFDTWGQGTLVTVSSASTKGPCVFPLAPSSKSTSGGTAALGCLVKDYFPEPVTVSWNSGALTSGVHTFPAVLQSSGLYSLSSVVTVPSSSLGTQTYICNVNHKPSNTKVDKRVGGGGQGGGGQGGGGQGGGGQGGGGQEVQLLESGGGLVQPGGSLRLSCAASGRYIDETAVAWFRQAPGKGREFVAGIGGGVDITYYADSVKGRFTISRDNSKNTLYLQMNSLRPEDTAVYYCGARPGRPLITSKVADLYPYWGQGTLVTVSSPP
light: DIQMTQSPSAMSASVGDRVTITCRASQGISHYLVWFQQKPGKVPKRLIYAASSLQSGVPSRFSGSGSGTEFTLTISSLQPEDFATYYCLQHNSYPWTFGQGTKVEIKRTVAAPSVFIFPPSDEQLKSGTASVVCLLNNFYPREAKVQWKVDNALQSGNSQESVTEQDSKDSTYSLSSTLTLSKADYEKHKVYACEVTHQGLSSPVTKSFNRGE
The molecule B2 displayed a Kd of 18.6 nM, a koff of 0.00671 s⁻¹ and a kon of 361000 M⁻¹ s⁻¹.
